Among the data in patent US20200113997A1 are Kd values, retold here.

In test [1] the target is Man9-V3 glycopeptide. In words: BLI. (In general: Biolayer interferometry detects binding as a change in optical thickness at a sensor tip.)
For test [2], the target named is Man9-V3 glycopeptide (HIV-1 (clade B JRFL mini-V3)). In words: BLI, biotinylated peptide on streptavidin sensor, bivalent avidity model.

B1: DH270.IA3 (protein)
chain 1: QVQLVQSGAEVKKPGASVKVSCKASGYTFTDYYIHWVRQAPGQGLEWMAWINPTTGRTNYARKFQGRVTMTRDTSISTAYMELRRLRSDDTAVYYCARGGWIGLYVDYSGYPNFDSWGQGTLVTVSS
chain 2: QSALTQPASVSGSPGQSITISCTGTSYDVGSYNLVSWYQQHPGKAPKLMIYEVSKWPSGVSNRFSGSKSGNTASLTISGLQAEDEADYYCCSYAGSSTVIFGGGTKLTVL
As for B1, the Kd in test [1] was > 10 µM.

B2: DH270.IA2 (protein)
chain 1: QVQLVQSGAEMKKPGASVKVSCKASGYTFTDYYIHWVRQAPGQGLEWMGWINPNTGRTNYAQKFQGRVTMTRDTSISTAYMELSRLTSDDTAVYYCATGGWIGLYYDSSGYPNFDYWGQGTLVTVSS
chain 2: QSALTQPASVSGSPGQSITISCTGTSYDVGSYNLVSWYQQHPGKAPKYMIYEVNKRPSGVSNRFSGSKSGNTASLTISGLQAEDEADYYCCSYAGSSTVIFGGGTKLTVL
As for B2, the Kd in test [1] is > 10 µM.

B3: DH270.IA1 (protein)
chain 1: QVQLVQSGAEVKKPGASVKVSCKASGYTFTDYYIHWVRQAPGQGLEWMGWINPNTGRTNYAQKFQGRVIMTRDTSISTAYMELSRLRSDDTAVYYCARGGWIGLYYDSSGYPNFDYWGQGTLVTVSS
chain 2: QSALTQPASVSGSPGQSITISCTGTSYDVGSYNLVSWYQQHPGKAPKLMIYEVSKRPSGVSNRFSGSKSGNTASLTISGLQAEDEADYYCCSYAGSSTVIFGGGTKLTVL
For B3, the Kd in test [1] amounted to 3.29 µM.

B4: DH270.6 (antibody, V domains shown)
VH: QVQLVQSGAQMKNPGASVKVSCAPSGYTFTDFYIHWLRQAPGQGLQWMGWMNPQTGRTNTARNFQGRVIMTRDTSIGTAYMELRSLTSDDTAIYYCTTGGWISLYYDSSYYPNFDHWGQGTLLTVSS
VL: TSLLTQPASVSGSPGQSITISCTGTKYDVGSHDLVSWYQQYPGKVPKYMIYEVNKRPSGVSNRFSGSKSGNTASLTISGLRAEDEADYYCCSFGGSATVVCGGGTKVTVL
In test [2], B4 registered a Kd of 0.188 µM.
